Patent US11781118B2, “Preparation of L-amino acid deaminase mutant and application thereof” (Jiangnan University, priority 2020, dated 2023)

Assay: Shake flask screening of mutants: whole-cell transformation of L-valine, α-ketoisovaleric acid determined by HPLC
Format: cell-based, E. coli BL21
Details: transformation temperature 25° C., pH 8.0, 24 h
Method: Preparation of sample for determining α-ketoisovaleric acid content by HPLC: 1 mL of a transformed transformation solution is centrifuged at 12000 rpm for 5 min, the supernatant is diluted and filtered through a 0.45 μm filtration membrane, and the filtrate is for liquid chromatography.
Determination of α-ketoisovaleric acid content by HPLC: a waters high performance liquid chromatograph (equipped with a UV-visible detector) and a Bio-Rad Aminex HPX-87H (300×7.8 mm, 9 μm) chromatographic column are used, and the mobile phase is dilute sulfuric acid with the concentration of 2.5 mmol/L. The mobile phase is filtered through a 0.22 μm filtration membrane; the filtrate is subjected to ultrasonic degassing; and detection is performed at the flow rate of 0.6 mL/min, the column temperature of 35° C. and the ultraviolet detection wavelength of 210 nm.
(2) Shake flask screening of single mutants: The obtained 4 mutant strains and a strain containing wild-type L-amino acid deaminase were respectively inoculated into an LB seed medium, and cultured at 200 rpm at 37° C. for about 10 h. The products were respectively inoculated into a shake flask fermentation medium with the inoculum size of 5% of the medium by volume, and cultured at 200 rpm at 37° C. until OD600 was about 0.8. IPTG with the final concentration of 0.04 mmol/L was added for induction, and the induction was performed at 200 rpm at 25° C. for 14 h. The product was centrifuged at 6000 rpm for 8 min to collect bacterial cells. The bacterial cells collected by centrifugation were used for later transformation experiments.
Transformation conditions: transformation temperature 25° C., reaction pH 8.0, and transformation time 24 h.
The yield of α-ketoisovaleric acid of the transformation solution after the completion of the transformation was determined by HPLC. Finally, S98A produced α-ketoisovaleric acid at the highest yield.

Molecule | α-ketoisovaleric acid [g/L]
PmirLAAD^S98A (protein) MNISRRKLLLGVGAAGVLAGGAALVPMVRRDGKFVEAKSRASFVEGTQGALPKEADVVIIGAGIQGIMTAINLAERGMSVTILEKGQIAGEQSGRAYAQIISYQTSPEIFPLHHYGKILWRGMNEKIGADTSYRTQGRVEALADEKALDKAQAWIKTAKEAAGFDTPLNTRIIKGEELSNRLVGAQTPWTVAAFEEDSGSVDPETGTPALARYAKQIGVKIYTNCAVRGIETAGGKISDVVSEKGAIKTSQVVLAGGIWSRLFMGNMGIDIPTLNVYLSQQRVSGVPGAPRGNVHLPNGIHFREQADGTYAVAPRIFTSSIVKDSFLLGPKFMHLLGGGELPLEFSIGEDLFNSFKMPTSWNLDEKTPFEQFRVATATQNTQHLDAVFQRMKTEFPVFEKSEVVERWGAVVSPTFDELPIISEVKEYPGLVINTATVWGMTEGPAAGEVTADIVMGKKPVIDPTPFSLDRFKK | 46.9
PmirLAAD^T105A (protein) MNISRRKLLLGVGAAGVLAGGAALVPMVRRDGKFVEAKSRASFVEGTQGALPKEADVVIIGAGIQGIMTAINLAERGMSVTILEKGQIAGEQSGRAYSQIISYQASPEIFPLHHYGKILWRGMNEKIGADTSYRTQGRVEALADEKALDKAQAWIKTAKEAAGFDTPLNTRIIKGEELSNRLVGAQTPWTVAAFEEDSGSVDPETGTPALARYAKQIGVKIYTNCAVRGIETAGGKISDVVSEKGAIKTSQVVLAGGIWSRLFMGNMGIDIPTLNVYLSQQRVSGVPGAPRGNVHLPNGIHFREQADGTYAVAPRIFTSSIVKDSFLLGPKFMHLLGGGELPLEFSIGEDLFNSFKMPTSWNLDEKTPFEQFRVATATQNTQHLDAVFQRMKTEFPVFEKSEVVERWGAVVSPTFDELPIISEVKEYPGLVINTATVWGMTEGPAAGEVTADIVMGKKPVIDPTPFSLDRFKK | 44.6
PmirLAAD^T105A/L341A (protein) MNISRRKLLLGVGAAGVLAGGAALVPMVRRDGKFVEAKSRASFVEGTQGALPKEADVVIIGAGIQGIMTAINLAERGMSVTILEKGQIAGEQSGRAYSQIISYQASPEIFPLHHYGKILWRGMNEKIGADTSYRTQGRVEALADEKALDKAQAWIKTAKEAAGFDTPLNTRIIKGEELSNRLVGAQTPWTVAAFEEDSGSVDPETGTPALARYAKQIGVKIYTNCAVRGIETAGGKISDVVSEKGAIKTSQVVLAGGIWSRLFMGNMGIDIPTLNVYLSQQRVSGVPGAPRGNVHLPNGIHFREQADGTYAVAPRIFTSSIVKDSFLLGPKFMHLLGGGEAPLEFSIGEDLFNSFKMPTSWNLDEKTPFEQFRVATATQNTQHLDAVFQRMKTEFPVFEKSEVVERWGAVVSPTFDELPIISEVKEYPGLVINTATVWGMTEGPAAGEVTADIVMGKKPVIDPTPFSLDRFKK | 47.1
PmirLAAD^T105A/S106A (protein) MNISRRKLLLGVGAAGVLAGGAALVPMVRRDGKFVEAKSRASFVEGTQGALPKEADVVIIGAGIQGIMTAINLAERGMSVTILEKGQIAGEQSGRAYSQIISYQAAPEIFPLHHYGKILWRGMNEKIGADTSYRTQGRVEALADEKALDKAQAWIKTAKEAAGFDTPLNTRIIKGEELSNRLVGAQTPWTVAAFEEDSGSVDPETGTPALARYAKQIGVKIYTNCAVRGIETAGGKISDVVSEKGAIKTSQVVLAGGIWSRLFMGNMGIDIPTLNVYLSQQRVSGVPGAPRGNVHLPNGIHFREQADGTYAVAPRIFTSSIVKDSFLLGPKFMHLLGGGELPLEFSIGEDLFNSFKMPTSWNLDEKTPFEQFRVATATQNTQHLDAVFQRMKTEFPVFEKSEVVERWGAVVSPTFDELPIISEVKEYPGLVINTATVWGMTEGPAAGEVTADIVMGKKPVIDPTPFSLDRFKK | 49.4
PmirLAAD^S98A/L341A (protein) MNISRRKLLLGVGAAGVLAGGAALVPMVRRDGKFVEAKSRASFVEGTQGALPKEADVVIIGAGIQGIMTAINLAERGMSVTILEKGQIAGEQSGRAYAQIISYQTSPEIFPLHHYGKILWRGMNEKIGADTSYRTQGRVEALADEKALDKAQAWIKTAKEAAGFDTPLNTRIIKGEELSNRLVGAQTPWTVAAFEEDSGSVDPETGTPALARYAKQIGVKIYTNCAVRGIETAGGKISDVVSEKGAIKTSQVVLAGGIWSRLFMGNMGIDIPTLNVYLSQQRVSGVPGAPRGNVHLPNGIHFREQADGTYAVAPRIFTSSIVKDSFLLGPKFMHLLGGGEAPLEFSIGEDLFNSFKMPTSWNLDEKTPFEQFRVATATQNTQHLDAVFQRMKTEFPVFEKSEVVERWGAVVSPTFDELPIISEVKEYPGLVINTATVWGMTEGPAAGEVTADIVMGKKPVIDPTPFSLDRFKK | 51.5
PmirLAAD^S98A/S106A (protein) MNISRRKLLLGVGAAGVLAGGAALVPMVRRDGKFVEAKSRASFVEGTQGALPKEADVVIIGAGIQGIMTAINLAERGMSVTILEKGQIAGEQSGRAYAQIISYQTAPEIFPLHHYGKILWRGMNEKIGADTSYRTQGRVEALADEKALDKAQAWIKTAKEAAGFDTPLNTRIIKGEELSNRLVGAQTPWTVAAFEEDSGSVDPETGTPALARYAKQIGVKIYTNCAVRGIETAGGKISDVVSEKGAIKTSQVVLAGGIWSRLFMGNMGIDIPTLNVYLSQQRVSGVPGAPRGNVHLPNGIHFREQADGTYAVAPRIFTSSIVKDSFLLGPKFMHLLGGGELPLEFSIGEDLFNSFKMPTSWNLDEKTPFEQFRVATATQNTQHLDAVFQRMKTEFPVFEKSEVVERWGAVVSPTFDELPIISEVKEYPGLVINTATVWGMTEGPAAGEVTADIVMGKKPVIDPTPFSLDRFKK | 50.9
PmirLAAD^S106A/L341A (protein) MNISRRKLLLGVGAAGVLAGGAALVPMVRRDGKFVEAKSRASFVEGTQGALPKEADVVIIGAGIQGIMTAINLAERGMSVTILEKGQIAGEQSGRAYSQIISYQTAPEIFPLHHYGKILWRGMNEKIGADTSYRTQGRVEALADEKALDKAQAWIKTAKEAAGFDTPLNTRIIKGEELSNRLVGAQTPWTVAAFEEDSGSVDPETGTPALARYAKQIGVKIYTNCAVRGIETAGGKISDVVSEKGAIKTSQVVLAGGIWSRLFMGNMGIDIPTLNVYLSQQRVSGVPGAPRGNVHLPNGIHFREQADGTYAVAPRIFTSSIVKDSFLLGPKFMHLLGGGEAPLEFSIGEDLFNSFKMPTSWNLDEKTPFEQFRVATATQNTQHLDAVFQRMKTEFPVFEKSEVVERWGAVVSPTFDELPIISEVKEYPGLVINTATVWGMTEGPAAGEVTADIVMGKKPVIDPTPFSLDRFKK | 46.5
PmirLAAD^L341A (protein) MNISRRKLLLGVGAAGVLAGGAALVPMVRRDGKFVEAKSRASFVEGTQGALPKEADVVIIGAGIQGIMTAINLAERGMSVTILEKGQIAGEQSGRAYSQIISYQTSPEIFPLHHYGKILWRGMNEKIGADTSYRTQGRVEALADEKALDKAQAWIKTAKEAAGFDTPLNTRIIKGEELSNRLVGAQTPWTVAAFEEDSGSVDPETGTPALARYAKQIGVKIYTNCAVRGIETAGGKISDVVSEKGAIKTSQVVLAGGIWSRLFMGNMGIDIPTLNVYLSQQRVSGVPGAPRGNVHLPNGIHFREQADGTYAVAPRIFTSSIVKDSFLLGPKFMHLLGGGEAPLEFSIGEDLFNSFKMPTSWNLDEKTPFEQFRVATATQNTQHLDAVFQRMKTEFPVFEKSEVVERWGAVVSPTFDELPIISEVKEYPGLVINTATVWGMTEGPAAGEVTADIVMGKKPVIDPTPFSLDRFKK | 43.6
PmirLAAD^S106A (protein) MNISRRKLLLGVGAAGVLAGGAALVPMVRRDGKFVEAKSRASFVEGTQGALPKEADVVIIGAGIQGIMTAINLAERGMSVTILEKGQIAGEQSGRAYSQIISYQTAPEIFPLHHYGKILWRGMNEKIGADTSYRTQGRVEALADEKALDKAQAWIKTAKEAAGFDTPLNTRIIKGEELSNRLVGAQTPWTVAAFEEDSGSVDPETGTPALARYAKQIGVKIYTNCAVRGIETAGGKISDVVSEKGAIKTSQVVLAGGIWSRLFMGNMGIDIPTLNVYLSQQRVSGVPGAPRGNVHLPNGIHFREQADGTYAVAPRIFTSSIVKDSFLLGPKFMHLLGGGELPLEFSIGEDLFNSFKMPTSWNLDEKTPFEQFRVATATQNTQHLDAVFQRMKTEFPVFEKSEVVERWGAVVSPTFDELPIISEVKEYPGLVINTATVWGMTEGPAAGEVTADIVMGKKPVIDPTPFSLDRFKK | 44.9
PmirLAAD^S98A/T105A (protein) MNISRRKLLLGVGAAGVLAGGAALVPMVRRDGKFVEAKSRASFVEGTQGALPKEADVVIIGAGIQGIMTAINLAERGMSVTILEKGQIAGEQSGRAYAQIISYQASPEIFPLHHYGKILWRGMNEKIGADTSYRTQGRVEALADEKALDKAQAWIKTAKEAAGFDTPLNTRIIKGEELSNRLVGAQTPWTVAAFEEDSGSVDPETGTPALARYAKQIGVKIYTNCAVRGIETAGGKISDVVSEKGAIKTSQVVLAGGIWSRLFMGNMGIDIPTLNVYLSQQRVSGVPGAPRGNVHLPNGIHFREQADGTYAVAPRIFTSSIVKDSFLLGPKFMHLLGGGELPLEFSIGEDLFNSFKMPTSWNLDEKTPFEQFRVATATQNTQHLDAVFQRMKTEFPVFEKSEVVERWGAVVSPTFDELPIISEVKEYPGLVINTATVWGMTEGPAAGEVTADIVMGKKPVIDPTPFSLDRFKK | 52.6
